Assay [1] deals with human CADM1 (cell surface, on CADM1-expressing human tumour cells and tissues) (human) (UniProt Q9BY67). Nature of the assay: cell-based or functional assay.
The target is the same in assay [2]. Nature of the assay: flow cytometry histogram on 786-0 cells, isotype control.
Assay [3] shares this target. Nature of the assay: flow cytometry histogram on SKMEL28 cells, isotype control.
Assay [4] has the same target. Nature of the assay: flow cytometry on NCI-H69 cells expressing human CADM1. Background: In flow cytometry, cells or beads pass a laser one at a time.
For assay [5] the target is unchanged. Nature of the assay: flow cytometry (FACS Geomean) titration on SKOV3 ovarian cancer cells; the table under the plot prints no unit, nM is the unit of the x axis 'Ab conc in nM'.
The target is the same in assay [6]. Nature of the assay: flow cytometry histogram on 786-0 cells.
Assay [7] has the same target. In words: flow cytometry (FGMI) titration on SkMel28 melanoma cells; table under the plot.
Assay [8] has the same target. Nature of the assay: flow cytometry (FGMI) titration on 786-O renal cell carcinoma cells; table under the plot.
Assay [9] has the same target. In words: flow cytometry (FACS Geomean) titration on A549 non-small cell lung cancer cells.
The target is the same in assay [10]. Nature of the assay: flow cytometry (FACS Geomean) titration on A549 non-small cell lung cancer cells; the table under the plot prints no unit, nM is the unit of the x axis 'Ab conc in nM'.
Assay [11] shares this target. Nature of the assay: flow cytometry histogram on SKMEL28 cells.

UniProt Q9BY67, sequence (Q9BY67 45-442): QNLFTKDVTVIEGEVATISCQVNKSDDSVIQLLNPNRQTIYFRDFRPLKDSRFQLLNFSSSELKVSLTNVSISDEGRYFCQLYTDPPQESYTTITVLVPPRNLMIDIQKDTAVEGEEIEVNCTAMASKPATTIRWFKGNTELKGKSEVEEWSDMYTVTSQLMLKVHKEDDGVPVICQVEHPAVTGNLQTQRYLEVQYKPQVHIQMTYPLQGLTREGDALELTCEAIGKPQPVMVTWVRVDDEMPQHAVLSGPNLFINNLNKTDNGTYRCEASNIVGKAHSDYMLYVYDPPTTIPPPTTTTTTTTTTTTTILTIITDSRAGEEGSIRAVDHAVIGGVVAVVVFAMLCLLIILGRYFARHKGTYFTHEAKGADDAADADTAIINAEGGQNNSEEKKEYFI

Turning to Isotype Control (antibody), in assay [1], the % Specific Lysis: DMS79 (ADCC) was determined as 2.96% and the % Specific Lysis: NCI-H69 (ADCC) is 3.3%. In assay [2], this molecule yielded a number in the histogram legend box (name not given; axis FL2-H) of 8.39. The molecule also came in with a number in the histogram legend box (name not given; axis FL2-H) in assay [3] of 10.5.

B1: PTA021_A1 human monoclonal antibody (antibody, V domains shown)
VH: QITLKESGPTLVKPTQTLTLTCTFSGFSLNTSGVGVGWIRQPPGKALEWLALIYWDDDKRYSPSLKSRLTITKDTSKNQVVLTMTNMDPVDTATYYCAHRRVEWVALAGNWFDPWGQGTLVTVSS
VL: DIQMTQSPSSLSASVGDRVTITCRASQGISSWLAWYQQKPEKAPKSLIYGASSLQSGVPSRFSGSGSGTDFTLTISNLQPEDFATYYCQQYNSYPLTFGGGTKVEIK
In assay [1], B1 displayed a % Specific Lysis: DMS79 (ADCC) of 37.8% and a % Specific Lysis: NCI-H69 (ADCC) of 24.6%. The same molecule showed an EC50 in assay [4] of 0.588 nM.

B2: PTA021_A3 human monoclonal antibody (antibody, V domains shown)
VH: QITLKESGPTLVKPTQTLTLTCTFSGFSLSTSGVGVGWIRQPPGKALEWLALIYWDDDKRYSPSLKSRLTITKDTSKNQVVLTMTNMDPVDTATYYCAHRRVEWVTLAGNWFDPWGQGTLVTVSS
VL: DIQMTQSPSSLSASVGDRVTITCRASQGISSWLAWYQQKPEKAPKSLIYAASSLQSGVPSRFSGSGSGTDFTLTISNLQPEDFATYYCQQYNSYPLTFGGGTKVEIK
B2: the EC50 in [5] stood at 12.6 nM; in assay [7], 4.42 nM; in assay [4], 0.674 nM; in assay [8] it was 3.25 nM; in [10], 3.65 nM. The % Specific Lysis: DMS79 (ADCC) in assay [1] worked out at 61%. For the same molecule, the % Specific Lysis: NCI-H69 (ADCC) in assay [1] came out at 29.8%. Further, the number in the histogram legend box (name not given; axis FL2-H) amounted to 42.6 in [6] and 25.9 in [11]. In assay [9], the EC50 (read off the curve) amounted to 4 nM.

B3: PTA021_A2 human monoclonal antibody (antibody, V domains shown)
VH: QITLKESGPTLVKPTQTLTLTCTFSGFSLSTSGVGVGWIRQPPGKALEWLALIYWDDDKRYSPSLKSRLTITKDTSKNQVVLTMTNMDPVDTAIYYCAHRRVEWFALAGNWFDPWGQGSLVTVSS
VL: DIQMTQSPSSLSASVGDRVTITCRASQGISSWLAWYQQKPEKAPKSLIYAASSLQSGVPSRFSGSGSGTDFTLTISSLQPEDFATYYCQQYNSYPLTFGGGTKVEIK
For the molecule B3, in assay [1], the % Specific Lysis: DMS79 (ADCC) turned out to be 34.7% and the % Specific Lysis: NCI-H69 (ADCC) is 15.9%. In [4], this molecule came in with an EC50 of 0.667 nM.

One may read the EC50 as the midpoint of the concentration-response curve. A higher EC50 goes with a less potent agent. One may read the EC50 (read off the curve) as the concentration that produces a half-maximal response.

The record behind these values is patent US20120093826A1.
